Key:
INO80-C ΔN sub-complex = target: T1, INO80-C ΔN sub-complex (Saccharomyces cerevisiae, UniProt P53115); experiment: NADH-coupled ATPase assay (pyruvate kinase / lactate dehydrogenase), absorbance at […] nm; format: biochemical; conditions: nucleosome-stimulated (0-320 nM 0N80 mononucleosomes, Xenopus laevis histones); 80 nM complex; 1 mM ATP (2 mM stated elsewhere in the source); 2 mM MgCl2, 50 mM NaCl, pH 8, 30 °C
T1 construct: ten-subunit sub-complex; Ino80 truncated (residues 470-1490, printed 'residue 470 from 1490') with C-terminal Twin-Strep tag; MultiBac baculovirus, High Five insect cells; with Actin-related protein 5; Chromatin-remodeling complex subunit IES6; Ino eighty subunit 2; RuvB-like protein 1; RuvB-like protein 2; Actin-related protein 4; Actin-like protein ARP8; Actin; Ino eighty subunit 4

[1] = target: human APE1 endonuclease (AP-endonuclease 1) (human) (UniProt P27695)
[2] = target: human APE1 endonuclease (AP-endonuclease 1) (human) (UniProt P27695); remark: listed apart in the source

human APE1 endonuclease (AP-endonuclease 1) (human), sequence (P27695 whole entry): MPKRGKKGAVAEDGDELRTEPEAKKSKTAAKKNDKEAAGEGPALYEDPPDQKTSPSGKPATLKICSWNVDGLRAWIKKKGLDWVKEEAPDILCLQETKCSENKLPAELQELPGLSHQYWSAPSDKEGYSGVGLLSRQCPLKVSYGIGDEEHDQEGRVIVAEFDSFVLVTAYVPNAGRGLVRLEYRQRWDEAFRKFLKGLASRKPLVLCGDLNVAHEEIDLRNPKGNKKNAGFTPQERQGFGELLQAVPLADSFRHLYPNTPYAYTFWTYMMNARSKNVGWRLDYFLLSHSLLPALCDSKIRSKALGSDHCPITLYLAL

APE1 incision assay: percent of dTHF(SHL-6) nucleosomes (100 nM) cleaved over 30 min by 5 nM APE1 with 25 nM INO80-C, with ATP (approximately 40% with APE1 alone) [1] [%]	APE1 incision assay after pre-treatment of the APE1-INO80-C mixture at 37 °C for 20 min, with ATP: proportion of incised nucleosomes [2] [%]	Compound	NADH-coupled ATPase assay (pyruvate kinase / lactate dehydrogenase), absorbance (INO80-C ΔN sub-complex)
		Nc1ncnc2c1ncn2[C@@H]1O[C@H](COP(=O)(O)OP(=O)(O)OP(=O)(O)O)[C@@H](O)[C@H]1O [ATP]	conducted measurements of nucleosome-stimulated ATPase activity of INO80-C ΔN through a NADH+-coupled assay
56	70	endogenous yeast INO80-C complex (from UniProt P53115 1-1489; P53946 1-755; P32617 1-166; P40154 1-320; Q03940 1-463; Q12464 1-471; P80428 1-489; Q12386 1-881; P60010 1-375; Q08561 1-116; P35189 1-244; Q03435 1-203; P43579 1-692; Q12345 1-250; P40060 1-125)	
